We go through one protein from publication PMC8049259, “Structure of the E. coli agmatinase, SPEB” (PLoS ONE, 2021).

This data set deals with the molecule itself. In words: SEC; Superdex 200 10/300 GL, 30 mM Tris pH 7.0, 50 mM sodium chloride; oligomeric state judged from the elution profile. In general terms: SEC sorts molecules by how far they enter the pores of the column.

B1: E. coli agmatine ureohydrolase (agmatinase, SPEB) (enzyme, UniProt P60651 1-306, looked up)
chain: MSTLGHQYDNSLVSNAFGFLRLPMNFQPYDSDADWVITGVPFDMATSGRAGGRHGPAAIRQVSTNLAWEHNRFPWNFDMRERLNVVDCGDLVYAFGDAREMSEKLQAHAEKLLAAGKRMLSFGGDHFVTLPLLRAHAKHFGKMALVHFDAHTDTYANGCEFDHGTMFYTAPKEGLIDPNHSVQIGIRTEFDKDNGFTVLDACQVNDRSVDDVIAQVKQIVGDMPVYLTFDIDCLDPAFAPGTGTPVIGGLTSDRAIKLVRGLKDLNIVGMDVVEVAPAYDQSEITALAAATLALEMLYIQAAKKGE
notes: E. coli agmatinase SPEB, UniProt P60651, a 306 residue protein; cloned in pTHT (a pET-28 variant with a TEV protease site in place of the thrombin site); Two Mn2+ ions were modelled in each active site; also called agmatine amidinohydrolase; SPEB-THT (plasmid); source: E. coli BL21(DE3), purified (Ni-NTA, size exclusion chromatography)
With B1, the stoichiometry N (in general, the number of molecules, sites or subunits per partner or assembly) was found to be 6.
